Test results as given in patent publication US20230047413A1 (Janssen / Centocor, published 2023).
“And” between values parts separate entries of the source, which are not always exact repeats. Equal values may be shown once.

Assays:
Peptide-2 [1] = target: T1, Peptide-2 (human, phosphothreonine 212, phosphothreonine 217 (tau 2N4R numbering); short chain biotin (SCBiot) and dPEG4 at the N-terminus; amide at the C-terminus); assay: SPR ProteOn, mAb captured, peptide as analyte; range of n=2
T1 construct: also called pT212/pT217-tau peptide (Peptide-2)
Description: (§1) A subset of HFA-PT3 monoclonal antibody variants, selected based on biophysical characterization and ELISA binding to PHF, were analyzed by Surface Plasmon Resonance (SPR) with a ProteOn XPR36 for binding to the following phosphopeptides: pT212/pT217-tau peptide (Peptide-2, SEQ ID NO: 48) and pT212-tau peptide (Peptide-8, SEQ ID NO: 54). All experiments were performed at 25° C. using PBST, pH 7.4, (Bio-Rad Cat#176-2720) as both running buffer and sample dilution buffer.
(§2) Monoclonal antibody/Peptide binding. […] Anti-human IgG was amine-coupled to the chip surface using EDC/NHS, then washed with ethanolamine. Antibodies were diluted to 2 μg/mL in PBST and injected on the surface for 5 min at 30 μL/min to achieve a maximum density of 900-1000 RU. Peptides were injected as analytes at 60 μL/min for 3 min, followed by 5 min dissociation. Peptide-2 was diluted in PBST to generate a three-fold concentration series (0-30 nM) and measured in duplicate. Single measurements of monoclonal antibody binding to Peptide-8 were recorded over the concentration range 0-100 nM.
(§3) Data were double referenced by subtraction of the interspot response, and the curves generated by the buffer only injection. The chip surface was regenerated with 0.85% phosphoric acid, followed by PBST injection before the next antibody titration injection. Data processing and analysis were performed using instrument software. The data were fit using a simple Langmuir 1:1 binding model.

Peptide-2 [2] = target: T1, Peptide-2; assay: SPR ProteOn, mAb captured, peptide as analyte
Description: as §1, §2, §3

Peptide-8 = target: T2, Peptide-8 (human, phosphothreonine 212 (tau 2N4R numbering); SCBiot and dPEG4 at the N-terminus; amide at the C-terminus); assay: SPR ProteOn, mAb captured by anti-human Fc, peptide as analyte
T2 construct: also called pT212-tau peptide (Peptide-8)
Description: as §1, §2, §3

[3] = target: T3, PHF-tau (paired helical filament tau isolated from Alzheimer's disease brain) (human, UniProt P10636-8 2-441, limits assumed, hyper-phosphorylated, aggregated; sites not listed for the preparation); assay: SPR ProteOn, PHF-tau capture-coupled via HT7, bivalent model
T3 construct: also called enriched PHF-tau; ePHF-tau
Description: (§4) Affinity matured monoclonal antibodies were tested for binding to PHF-tau isolated from Alzheimer's disease brain.
(§5) A GLC sensor chip was covalently immobilized with a mouse anti-tau antibody, HT7 (ThermoFisher, catalog# MN1000) using the vendor recommended protocol for amine-coupling chemistry (˜5000 response units, RU). The coupling buffer was 10 mM, pH 4.5 sodium acetate. PHF-tau was prepared by 2-times centrifugation at 5000×g in 5° C. for 10 min. […] After capture-coupling, the surface was activated and deactivated to generate a homogenous PHF-tau surface for antibody binding studies. The anti-tau antibodies and their Fabs (prepared in running buffer, 0.024-75 nM at 5-fold dilutions) were injected at 50 μL/min over the PHF-tau surface to measure binding. The association and dissociation profiles were monitored for 4 minutes and 2 hours, respectively. After dissociation, the sensor chip was regenerated using multiple injections of 10 mM Glycine pH 2.0 and the running buffer. A reference surface (without any PHF-tau) was used to monitor non-specific binding of the injected mAbs or Fabs. HT7 antibody was used as a positive control. The binding sensorgrams for mAbs were fit using a bivalent binding model where the apparent affinity or avidity-driven binding (KD) was reported as the ratio of off-rate and on-rate (koff/kₒₙ). A 1:1 Langmuir binding model was used for kinetics analysis of Fabs.

[4] = target: T4, tau phospho-peptide of the direct ELISA of Example 11; assay: direct ELISA, peptide coated
T4 construct: also called pT217 peptide; pT212/pT217 peptide
Description: (§6) Binding to tau phospho-peptide was analysed by ELISA where peptide (10 ng/mL) was directly coated to the plate overnight. […] After incubation with antibodies, plates were washed and 50 μL per well of HRPO labelled anti-Fab antibody (Jackson Immunoresearch laboratories) (diluted 1:10000 in blocking buffer). After another washing step detection was performed with “One step” TMB (Thermo Scientific) according to the manufacturers' instructions. Plates were analysed in EnVision® 2102 Multilabel Reader (Perkin Elmer, Waltham, Mass., USA). Binding curves were generated using GraphPad Prism7.0 software.

[5] = target: T4, tau phospho-peptide of the direct ELISA …; assay: direct ELISA on plate-coated tau phospho-peptide (10 ng/mL), detection with HRPO-labelled anti-Fab antibody
Description: as §6

[6] = target: T3, PHF-tau (paired helical filament tau …); assay: SPR ProteOn, PHF-tau capture-coupled via HT7, bivalent model; remark: listed apart in the source
Description: A subset of HFA-PT3 monoclonal antibodies was tested for binding to PHF-tau isolated from Alzheimer's disease brain. All interactions were studied at 25° C. using PBS pH 7.4, supplemented with 3 mM EDTA, and 0.005% Tween 20 as running or system buffer. HT7 (Pierce, catalog #MN1000), a mouse anti-tau antibody, was used as a positive control.
The interaction of anti-tau monoclonal antibodies with PHF-tau was analyzed by ProteOn using a biosensor surface prepared by capture-coupling PHF-tau using HT7 as the capture reagent. PHF-tau was prepared by 2-times centrifugation at 5000×g at 5° C. for 10 min; the supernatant from the second centrifugation was then diluted 1/40 in running buffer. To prepare the chip, HT7 was covalently immobilized to the surface of a GLC (ProteOn) sensor chip using the manufacturer's instructions for amine-coupling chemistry (˜5000 response units (RU)). The coupling buffer was 10 mM sodium acetate, pH 4.5. After HT7 immobilization, PHF-tau was injected and captured (˜300 RU) by HT7. After capture, PHF-tau was covalently immobilized to the sensor chip by activation of the chip using the manufacturer's instructions for amine-coupling chemistry. Remaining reactive sites were blocked by the injection of ethanolamine. After preparation and stabilization of the PHF-tau-modified surface and reference surface (containing no antigen), the anti-tau antibodies were diluted in the running buffer and injected in solution (0.12-75 nM in 5-fold dilutions). The association was monitored for 3 minutes (120 μL injected at 40 μL/min). The dissociation was monitored for 15 minutes. Regeneration of the sensor surface was performed using 10 mM Gly pH 2.0. The data for monoclonal antibodies were fit using a bivalent binding model where the apparent affinity (KD) was reported as the ratio of koff/kₒₙ. A Langmuir 1:1 binding model was used for kinetics analysis of Fabs.

[7] = target: T3, PHF-tau (paired helical filament tau …); assay: SPR ProteOn, PHF-tau on chip
Peptide-2 [8] = target: T1, Peptide-2; assay: SPR ProteOn, mAb captured, peptide as analyte; range of n=2; upper end of n=2 range
Description: as §1, §2, §3

[9] = target: T3, PHF-tau (paired helical filament tau …); assay: SPR ProteOn, PHF-tau capture-coupled via HT7, 1:1 model
Description: as §4, §5

T2 sequence (peptide, as listed by the source): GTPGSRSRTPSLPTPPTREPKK
T3 sequence (P10636 other isoform, or with tags, fused parts or gaps limits assumed): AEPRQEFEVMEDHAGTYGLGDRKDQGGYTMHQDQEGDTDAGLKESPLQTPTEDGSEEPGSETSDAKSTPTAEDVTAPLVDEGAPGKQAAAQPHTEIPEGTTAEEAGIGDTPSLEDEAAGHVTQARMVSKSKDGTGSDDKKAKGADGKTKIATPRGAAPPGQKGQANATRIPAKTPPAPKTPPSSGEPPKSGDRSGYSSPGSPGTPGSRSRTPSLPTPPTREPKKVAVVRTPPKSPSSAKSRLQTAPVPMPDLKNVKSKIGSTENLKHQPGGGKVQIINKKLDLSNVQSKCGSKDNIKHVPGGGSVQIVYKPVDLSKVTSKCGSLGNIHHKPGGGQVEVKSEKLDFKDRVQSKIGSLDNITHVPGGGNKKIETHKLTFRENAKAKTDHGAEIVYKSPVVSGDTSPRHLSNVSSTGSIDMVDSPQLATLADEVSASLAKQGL

Row | Kd (Peptide-2 [1]) [nM] | koff (Peptide-2 [1]) | kon (Peptide-2 [1]) | Kd (Peptide-2 [2]) [nM] | koff (Peptide-2 [2]) [s⁻¹] | kon (Peptide-2 [2]) [M⁻¹ s⁻¹] | Kd (Peptide-8) [nM] | koff (Peptide-8) [s⁻¹] | kon (Peptide-8) [M⁻¹ s⁻¹] | Kd [6] [nM] | koff [6] [s⁻¹] | kon [6] [M⁻¹ s⁻¹] | Binder | other results
1 | 0.0278 to 0.0306 | 0.000242 s⁻¹ and 0.000408 s⁻¹ | 8.7e+06 M⁻¹ s⁻¹ and 1e+07 M⁻¹ s⁻¹ | 0.0292 | 0.000325 | 9.35e+06 | 3.48 | 0.00802 | 2.31e+06 |  |  |  | B234 (antibody, human IgG1, V domains shown, Mouse PT3 variable regions (VH10/VL7) with human IgG1/kappa constant region; also called mouse PT3, hIgG1) VH: EVKLVESGGDLVKPGGSLKLSCAASGFTFSSYAMSWVRQNPEKRLEWVASISKGGNTYYPNSVKGRFTISRDNARNILYLQMSSLRSEDTALYYCARGWGDYGWFAYWGQVTLVTVSA VL: DIKMTQSPSSMYASLGERVTITCKASQDINRYLNWFQQKPGKSPKTLIYRANRLLDGVPSRFSGSGSGQDYSLTISSLDYEDMGIYYCLQYDEFPLTFGDGTKLELK | 
2 |  |  |  |  |  |  |  |  |  |  |  |  | B333 (antibody, human IgG1, kappa, V domains shown, also called PT1B333) VH: QVQLVESGGGVVQPGRSLRLSCAASGFTFSSYAMSWVRQAPGKGLEWVASISKGGNTYYADSVKGRFTISRDNSKNTLYLQMNSLRAEDTAVYYCARGWGDYGWFAYWGQVTLVTVSS VL: DIQMTQSPSSLSASVGDRVTITCKASQDINRWLNWFQQKPGKAPKSLIYRANRLLDGVPSRFSGSGSGTDFTLTISSLQPEDFATYYCLQYDEFPLTFGQGTKLEIKR | Kd [3]: 2.5 pM; koff [3]: 6.8e-06 s⁻¹; kon [3]: 2.68e+06 M⁻¹ s⁻¹; EC50 [4]: 0.164 nM; EC50 (read off the curve) [5]: ~90 pM
3 |  |  |  |  |  |  |  |  |  | 0.043 | 1.11e-05 | 255000 | B352 (IgG4 mAb) (antibody, V domains shown, IgG4 variant of B296 with the same variable regions; also called B296 as hIgG4) VH: QVQLVESGGGVVQPGRSLRLSCAASGFTFSSYAMSWVRQAPGKGLEWVASISKGGNTYYADSVKGRFTISRDNSKNTLYLQMNSLRAEDTAVYYCARGWGDYGWFAYWGQVTLVTVSS VL: DIQMTQSPSSLSASVGDRVTITCKASQDINRYLNWFQQKPGKAPKSLIYRANRLLDGVPSRFSGSGSGTDFTLTISSLQPEDFATYYCLQYDEFPLTFGQGTKLEIK | fold difference in affinity against B296 [7]: ≤ 2 fold
4 | 0.126 to 0.217 | 0.000856 s⁻¹ | 3.95e+06 M⁻¹ s⁻¹ | 0.172 | 0.000901 | 5.75e+06 | 32.6 | 0.0242 | 742000 | 0.032 | 4.28e-05 | 1.32e+06 | B252 (antibody, human IgG1, V domains shown, Humanized (HFA) PT3 variant, human IgG1/kappa; also called VH93/VL80) VH: QVQLVESGGGLVKPGGSLRLSCAASGFTFSSYAMSWIRQAPGKGLEWVSSISKGGNTYYADSVKGRFTISRDNAKNSLYLQMNSLRAEDTAVYYCARGWGDYGWFAYWGQVTLVTVSS VL: DIVMTQTPLSSPVTLGQPASISCKASQDINRYLNWLQQRPGQPPRLLIYRANRLLDGVPDRFSGSGAGTDFTLKISRVEAEDVGVYYCLQYDEFPLTFGQGTKLEIK | koff (Peptide-2 [8]): 0.000946 s⁻¹; kon (Peptide-2 [8]): 7.54e+06 M⁻¹ s⁻¹
5 |  |  |  |  |  |  |  |  |  | 0.042 | 6.03e-05 | 1.44e+06 | B297 (antibody, human IgG1, V domains shown, Humanized (HFA) PT3 variant, human IgG1/kappa; it is built from VL77 with D56S; also called VH93/VL78) VH: QVQLVESGGGLVKPGGSLRLSCAASGFTFSSYAMSWIRQAPGKGLEWVSSISKGGNTYYADSVKGRFTISRDNAKNSLYLQMNSLRAEDTAVYYCARGWGDYGWFAYWGQVTLVTVSS VL: DIQMTQSPSSLSASVGDRVTITCKASQDINRYLNWFQQKPGKAPKSLIYRANRLLSGVPSRFSGSGSGTDFTLTISSLQPEDFATYYCLQYDEFPLTFGQGTKLEIK | 
6 | 0.36 to 0.529 | 0.00124 s⁻¹ | 2.34e+06 M⁻¹ s⁻¹ | 0.445 | 0.00132 | 3.12e+06 | 86.5 | 0.0382 | 442000 | 0.061 | 4.08e-05 | 665000 | B282 (antibody, human IgG1, V domains shown, Humanized (HFA) PT3 variant, human IgG1/kappa; also called VH93/VL77) VH: QVQLVESGGGLVKPGGSLRLSCAASGFTFSSYAMSWIRQAPGKGLEWVSSISKGGNTYYADSVKGRFTISRDNAKNSLYLQMNSLRAEDTAVYYCARGWGDYGWFAYWGQVTLVTVSS VL: DIQMTQSPSSLSASVGDRVTITCKASQDINRYLNWFQQKPGKAPKSLIYRANRLLDGVPSRFSGSGSGTDFTLTISSLQPEDFATYYCLQYDEFPLTFGQGTKLEIK | koff (Peptide-2 [8]): 0.0014 s⁻¹; kon (Peptide-2 [8]): 3.89e+06 M⁻¹ s⁻¹
7 |  |  |  |  |  |  |  |  |  |  |  |  | B331 (Fab of B333) (Fab, V domains shown) VH: QVQLVESGGGVVQPGRSLRLSCAASGFTFSSYAMSWVRQAPGKGLEWVASISKGGNTYYADSVKGRFTISRDNSKNTLYLQMNSLRAEDTAVYYCARGWGDYGWFAYWGQVTLVTVSS VL: DIQMTQSPSSLSASVGDRVTITCKASQDINRWLNWFQQKPGKAPKSLIYRANRLLDGVPSRFSGSGSGTDFTLTISSLQPEDFATYYCLQYDEFPLTFGQGTKLEIK | Kd [9]: 0.031 nM; koff [9]: 5.31e-05 s⁻¹; kon [9]: 1.72e+06 M⁻¹ s⁻¹
8 |  |  |  |  |  |  |  |  |  |  |  |  | B332 (Fab of B809) (Fab, V domains shown) VH: QVQLVESGGGVVQPGRSLRLSCAASGFTFTSYAMSWVRQAPGKGLEWVASITKGGNTYYADSVKGRFTISRDNSKNTLYLQMNSLRAEDTAVYYCARGWGIYGWFAYWGQVTLVTVSS VL: DIQMTQSPSSLSASVGDRVTITCKASQDINRYLNWFQQKPGKAPKSLIYRANRLLDGVPSRFSGSGSGTDFTLTISSLQPEDFATYYCLQYDEFPLTFGQGTKLEIK | Kd [9]: 0.0258 nM; koff [9]: 0.00012 s⁻¹; kon [9]: 4.64e+06 M⁻¹ s⁻¹
